Earlier results in publication PMC10770464.
pKd: −log10 of the molar value.

Experiments:
[1] = molecular target: Plasminogen (Homo sapiens) (UniProt P00747)
[2] = molecular target: Tissue plasminogen activator (Homo sapiens) (UniProt P00750); experiment: ELISA
[3] = molecular target: Hepatocyte growth factor (Homo sapiens) (UniProt P14210); experiment: ELISA
[4] = molecular target: Apolipoprotein A (Homo sapiens) (UniProt P08519)
[5] = molecular target: Plasminogen kringle 4 (Homo sapiens) (UniProt P00747)
[6] = molecular target: High mobility group box-1 (Homo sapiens) (UniProt P09429)
UniProt P09429, sequence (P09429 whole entry): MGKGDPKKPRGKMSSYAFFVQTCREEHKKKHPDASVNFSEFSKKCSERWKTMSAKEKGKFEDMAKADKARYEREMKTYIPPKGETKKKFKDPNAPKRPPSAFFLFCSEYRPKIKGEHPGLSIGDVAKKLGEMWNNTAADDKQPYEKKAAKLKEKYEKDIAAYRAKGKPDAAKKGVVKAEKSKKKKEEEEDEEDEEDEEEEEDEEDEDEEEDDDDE

UniProt P00750, sequence (P00750 36-562): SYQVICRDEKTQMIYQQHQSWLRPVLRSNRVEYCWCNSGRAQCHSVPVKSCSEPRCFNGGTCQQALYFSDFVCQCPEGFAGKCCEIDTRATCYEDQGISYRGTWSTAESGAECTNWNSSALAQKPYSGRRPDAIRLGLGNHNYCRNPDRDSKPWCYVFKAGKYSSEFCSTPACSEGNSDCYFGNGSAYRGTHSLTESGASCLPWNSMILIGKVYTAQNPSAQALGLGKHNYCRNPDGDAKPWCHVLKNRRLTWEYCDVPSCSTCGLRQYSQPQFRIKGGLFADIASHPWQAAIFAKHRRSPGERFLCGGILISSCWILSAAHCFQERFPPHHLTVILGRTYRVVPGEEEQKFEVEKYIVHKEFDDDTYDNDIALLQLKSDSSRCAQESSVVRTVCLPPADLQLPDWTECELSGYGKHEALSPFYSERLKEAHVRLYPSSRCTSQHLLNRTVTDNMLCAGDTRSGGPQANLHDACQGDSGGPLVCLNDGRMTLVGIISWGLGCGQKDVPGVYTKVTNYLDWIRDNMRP
UniProt P14210, sequence (P14210 495-728): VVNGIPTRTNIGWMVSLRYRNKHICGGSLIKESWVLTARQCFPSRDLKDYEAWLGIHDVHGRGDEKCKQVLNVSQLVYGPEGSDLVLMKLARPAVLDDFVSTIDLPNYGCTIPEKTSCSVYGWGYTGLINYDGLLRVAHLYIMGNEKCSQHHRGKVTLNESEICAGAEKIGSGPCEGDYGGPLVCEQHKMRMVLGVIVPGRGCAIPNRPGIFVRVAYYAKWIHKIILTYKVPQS
UniProt P08519, sequence (P08519 20-2040): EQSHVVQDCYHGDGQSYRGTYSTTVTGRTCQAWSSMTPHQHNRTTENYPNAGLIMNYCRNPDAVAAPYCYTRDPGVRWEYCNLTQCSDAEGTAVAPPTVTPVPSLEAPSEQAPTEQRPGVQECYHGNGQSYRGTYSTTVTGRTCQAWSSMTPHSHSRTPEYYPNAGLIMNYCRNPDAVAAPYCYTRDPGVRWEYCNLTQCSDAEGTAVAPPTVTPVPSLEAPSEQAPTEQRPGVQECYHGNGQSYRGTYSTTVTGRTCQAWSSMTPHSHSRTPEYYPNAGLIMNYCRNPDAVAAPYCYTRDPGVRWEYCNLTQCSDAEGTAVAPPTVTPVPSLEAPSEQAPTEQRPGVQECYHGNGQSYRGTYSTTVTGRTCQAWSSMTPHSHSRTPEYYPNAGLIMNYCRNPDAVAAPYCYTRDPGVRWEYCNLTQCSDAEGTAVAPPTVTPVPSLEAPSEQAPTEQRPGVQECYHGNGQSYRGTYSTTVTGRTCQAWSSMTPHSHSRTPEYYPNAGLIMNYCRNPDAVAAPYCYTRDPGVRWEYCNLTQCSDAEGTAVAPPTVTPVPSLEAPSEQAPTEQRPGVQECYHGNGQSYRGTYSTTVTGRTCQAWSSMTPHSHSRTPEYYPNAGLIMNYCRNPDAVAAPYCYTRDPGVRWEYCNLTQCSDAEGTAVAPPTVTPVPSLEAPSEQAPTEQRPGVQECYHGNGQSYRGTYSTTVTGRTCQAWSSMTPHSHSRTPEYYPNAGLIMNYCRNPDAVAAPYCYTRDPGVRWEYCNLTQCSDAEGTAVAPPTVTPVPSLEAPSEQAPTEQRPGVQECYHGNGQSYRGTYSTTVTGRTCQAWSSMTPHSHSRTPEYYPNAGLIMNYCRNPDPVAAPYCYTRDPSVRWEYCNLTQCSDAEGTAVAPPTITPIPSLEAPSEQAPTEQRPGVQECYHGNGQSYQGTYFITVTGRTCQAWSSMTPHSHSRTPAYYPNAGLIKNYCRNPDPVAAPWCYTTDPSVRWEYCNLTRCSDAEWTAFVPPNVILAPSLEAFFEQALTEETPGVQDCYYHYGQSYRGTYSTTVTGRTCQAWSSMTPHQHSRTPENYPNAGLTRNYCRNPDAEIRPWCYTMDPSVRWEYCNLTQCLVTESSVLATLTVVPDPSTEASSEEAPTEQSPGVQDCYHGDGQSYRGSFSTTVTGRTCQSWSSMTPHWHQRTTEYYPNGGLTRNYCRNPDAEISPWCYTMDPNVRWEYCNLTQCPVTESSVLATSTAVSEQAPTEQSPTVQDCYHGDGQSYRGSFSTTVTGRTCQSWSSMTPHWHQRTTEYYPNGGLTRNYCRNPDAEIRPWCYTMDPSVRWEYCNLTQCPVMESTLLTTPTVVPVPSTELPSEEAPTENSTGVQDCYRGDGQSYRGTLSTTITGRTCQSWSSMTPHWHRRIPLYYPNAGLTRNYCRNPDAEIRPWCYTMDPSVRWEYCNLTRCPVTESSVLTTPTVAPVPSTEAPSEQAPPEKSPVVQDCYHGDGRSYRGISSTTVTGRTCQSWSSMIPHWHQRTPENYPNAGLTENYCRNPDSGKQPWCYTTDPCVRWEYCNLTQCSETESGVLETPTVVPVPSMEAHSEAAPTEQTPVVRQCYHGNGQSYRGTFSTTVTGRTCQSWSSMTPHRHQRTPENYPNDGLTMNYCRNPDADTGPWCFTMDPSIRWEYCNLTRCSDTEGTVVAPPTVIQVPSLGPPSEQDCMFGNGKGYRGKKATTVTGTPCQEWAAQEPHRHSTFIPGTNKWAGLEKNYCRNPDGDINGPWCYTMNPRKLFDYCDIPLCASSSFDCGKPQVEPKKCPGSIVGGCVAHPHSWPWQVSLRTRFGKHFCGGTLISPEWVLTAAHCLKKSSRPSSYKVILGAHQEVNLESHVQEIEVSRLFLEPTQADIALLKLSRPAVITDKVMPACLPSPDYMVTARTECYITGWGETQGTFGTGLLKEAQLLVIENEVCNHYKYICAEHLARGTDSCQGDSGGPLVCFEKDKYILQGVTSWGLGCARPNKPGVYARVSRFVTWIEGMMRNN

Tetranectin (from UniProt P05452)
pKd [1]: 6.40 | pKd [2]: 6.54 | pKd [3]: 6.31 | pKd [4]: 7.89 | pKd [5]: 4.60 | pKd [6]: 8.69
